Results: IntAct's records for PubMed 18278053

B1: Integrin beta-1 (Gallus gallus (Chicken)), P07228 (parent)
chain: MAETNLTLLTWAGILCCLIWSGSAQQGGSDCIKANAKSCGECIQAGPNCGWCKKTDFLQEGEPTSARCDDLAALKSKGCPEQDIENPRGSKRVLEDREVTNRKIGAAEKLKPEAITQIQPQKLVLQLRVGEPQTFSLKFKRAEDYPIDLYYLMDLSYSMKDDLENVKSLGTALMREMEKITSDFRIGFGSFVEKTVMPYISTTPAKLRNPCTGDQNCTSPFSYKNVLSLTSEGNKFNELVGKQHISGNLDSPEGGFDAIMQVAVCGDQIGWRNVTRLLVFSTDAGFHFAGDGKLGGIVLPNDGKCHLENNMYTMSHYYDYPSIAHLVQKLSENNIQTIFAVTEEFQAVYKELKNLIPKSAVGTLSSNSSNVIQLIIDAYNSLSSEVILENSKLPKEVTISYKSYCKNGVNDTQEDGRKCSNISIGDEVRFEINVTANECPKKGQNETIKIKPLGFTEEVEIHLQFICDCLCQSEGEPNSPACHDGNGTFECGACRCNEGRIGRLCECSTDEVNSEDMDAYCRRENSTEICSNNGECICGQCVCKKRENTNEVYSGKYCECDNFNCDRSNGLICGGNGICKCRVCECFPNFTGSACDCSLDTTPCMAGNGQICNGRGTCECGTCNCTDPKFQGPTCEMCQTCLGVCAEHKDCVQCRAFEKGEKKETCSQECMHFNMTRVESRGKLPQPVHPDPLSHCKEKDVGDCWFYFTYSVNSNGEASVHVVETPECPSGPDIIPIVAGVVAGIVLIGLALLLIWKLLMIIHDRREFAKFEKEKMNAKWDTGENPIYKSAVTTVVNPKYEGK

Variants of: B1
Conditions: with urp2_mouse Fermt3, Q8K1B8
Chain of urp2_mouse Fermt3, Q8K1B8 (Q8K1B8 whole entry): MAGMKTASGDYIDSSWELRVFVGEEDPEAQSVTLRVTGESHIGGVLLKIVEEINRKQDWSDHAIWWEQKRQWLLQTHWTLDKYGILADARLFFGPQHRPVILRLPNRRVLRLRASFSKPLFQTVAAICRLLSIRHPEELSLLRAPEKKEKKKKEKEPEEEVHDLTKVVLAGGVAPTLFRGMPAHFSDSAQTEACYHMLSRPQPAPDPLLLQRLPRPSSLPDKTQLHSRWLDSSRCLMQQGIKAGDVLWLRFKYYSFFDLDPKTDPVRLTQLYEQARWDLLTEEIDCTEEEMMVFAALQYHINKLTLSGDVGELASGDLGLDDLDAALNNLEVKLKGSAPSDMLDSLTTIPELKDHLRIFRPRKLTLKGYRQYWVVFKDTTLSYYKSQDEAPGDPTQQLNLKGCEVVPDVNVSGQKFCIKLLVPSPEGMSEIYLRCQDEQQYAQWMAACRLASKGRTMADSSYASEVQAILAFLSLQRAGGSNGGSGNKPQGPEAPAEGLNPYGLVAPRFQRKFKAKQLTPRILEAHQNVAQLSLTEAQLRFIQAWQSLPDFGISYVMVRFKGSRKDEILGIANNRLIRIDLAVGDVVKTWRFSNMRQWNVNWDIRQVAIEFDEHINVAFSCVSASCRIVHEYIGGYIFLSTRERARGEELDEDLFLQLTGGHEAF

| Variant | effect of a mutation on the interaction |
| --- | --- |
| Y788A | decreasing interaction strength |
| W780A | decreasing interaction strength |
| Y800A | disrupting interaction strength |
| T793A;T794A | disrupting interaction strength |
